The results in this text go back to PMC10350030 (bioRxiv, 2023).

Assay [1] addresses Aβ42 (Homo sapiens, UniProt P05067). Kind of assay: Fluorescence polarization. Type of assay: binding. The settings on record: read-out: apparent Kd for the Aβ42/CP interaction; fluorescence polarization of FAM-Aβ42 with increasing concentrations of CP. (Polarisation of emitted light reports the rotation of a fluorescent probe.)
For assay [2], the target named is biotinylated-Aβ42 (Homo sapiens, UniProt P05067). Kind of assay: Single-molecule TIRF imaging of Cy3-CP on immobilized biotinylated Aβ42. It is filed as binding.
A short description of assay [3]: Fluorescence spectra of FAM-Aβ42 during incubation in PBS. The settings on record: PBS buffer, 0 to 60 minutes, in the presence of CP. Type of assay: physicochemical.

biotinylated-Aβ42, sequence (P05067 672-713): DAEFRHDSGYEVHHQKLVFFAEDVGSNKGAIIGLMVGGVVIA
Aβ42, sequence (P05067 672-713, one chain of several): as the sequence (P05067 672-713) above

B1: ceruloplasmin (protein)
chain: KEKHYYIGIIETTWDYASDHGEKKLISVDTEHSNIYLQNGPDRIGRLYKKALYLQYTDETFRTTIEKPVWLGFLGPIIKAETGDKVYVHLKNLASRPYTFHSHGITYYKEHEGAIYPDNTTDFQRADDKVYPGEQYTYMLLATEEQSPGEGDGNCVTRIYHSHIDAPKDIASGLIGPLIICKKDSLDKEKEKHIDREFVVMFSVVDENFSWYLEDNIKTYCSEPEKVDKDNEDFQESNRMYSVNGYTFGSLPGLSMCAEDRVKWYLFGMGNEVDVHAAFFHGQALTNKNYRIDTINLFPATLFDAYMVAQNPGEWMLSCQNLNHLKAGLQAFFQVQECNKSSSKDNIRGKHVRHYYIAAEEIIWNYAPSGIDIFTKENLTAPGSDSAVFFEQGTTRIGGSYKKLVYREYTDASFTNRKERGPEEEHLGILGPVIWAEVGDTIRVTFHNKGAYPLSIEPIGVRFNKNNEGTYYSPNYNPQSRSVPPSASHVAPTETFTYEWTVPKEVGPTNADPVCLAKMYYSAVEPTKDIFTGLIGPMKICKKGSLHANGRQKDVDKEFYLFPTVFDENESLLLEDNIRMFTTAPDQVDKEDEDFQESNKMHSMNGFMYGNQPGLTMCKGDSVVWYLFSAGNEADVHGIYFSGNTYLWRGERRDTANLFPQTSLTLHMWPDTEGTFNVECLTTDHYTGGMKQKYTVNQCRRQSEDSTFYLGERTYYIAAVEVEWDYSPQREWEKELHHLQEQNVSNAFLDKGEFYIGSKYKKVVYRQYTDSTFRVPVERKAEEEHLGILGPQLHADVGDKVKIIFKNMATRPYSIHAHGVQTESSTVTPTLPGETLTYVWKIPERSGAGTEDSACIPWAYYSTVDQVKDLYSGLIGPLIVCRRPYLKVFNPRRKLEFALLFLVFDENESWYLDDNIKTYSDHPEKVNKDDEEFIESNKMHAINGRMFGNLQGLTMHVGDEVNWYLMGMGNEIDLHTVHFHGHSFQYKHRGVYSSDVFDIFPGTYQTLEMFPRTPGIWLLHCHVTDHIHAGMETTYTVLQNEDTKSG
As to B1, in assay [1], the Kd was 123 ± 6.7 nM. Also, the “TIRF image brightness of CP/Aβ versus CP alone” value in assay [2] (Cy3-labeled CP, imaging for 10 minutes) is reported as “much higher”. Moreover, in assay [2] (TIRF, 100 nM CP-Cy3, no Vc), the “half-lifetime of stable binding” value is approximately 62.3 s and the “half-lifetime of transient binding” value is on record as “about 14.6 s”. Also, the “stable K(slow) of CP/Aβ binding” value in assay [2] (TIRF, 100 nM CP-Cy3, no Vc, unit not given) is “about 0.011”. For the same molecule, in assay [2] (TIRF, 100 nM CP-Cy3 with 250 μM Vc), the “half-lifetime of stable binding with Vc” value is given as 39.0 s. The “effect of CP on the fluorescence intensity decrease of FAM-Aβ42” value in assay [3] is on record as “considerably attenuated”.
